As usually defined, the Kd is the equilibrium constant for the complex coming apart. A low value points to tighter binding.

The target in the assay is p65 protein used for surface plasmon resonance (UniProt Q04206 1-551). Briefly: SPR. A general note: In SPR one partner is held on a chip, and binding of the other changes the refractive index at the surface.
p65 protein used for surface plasmon resonance, sequence (Q04206 whole entry): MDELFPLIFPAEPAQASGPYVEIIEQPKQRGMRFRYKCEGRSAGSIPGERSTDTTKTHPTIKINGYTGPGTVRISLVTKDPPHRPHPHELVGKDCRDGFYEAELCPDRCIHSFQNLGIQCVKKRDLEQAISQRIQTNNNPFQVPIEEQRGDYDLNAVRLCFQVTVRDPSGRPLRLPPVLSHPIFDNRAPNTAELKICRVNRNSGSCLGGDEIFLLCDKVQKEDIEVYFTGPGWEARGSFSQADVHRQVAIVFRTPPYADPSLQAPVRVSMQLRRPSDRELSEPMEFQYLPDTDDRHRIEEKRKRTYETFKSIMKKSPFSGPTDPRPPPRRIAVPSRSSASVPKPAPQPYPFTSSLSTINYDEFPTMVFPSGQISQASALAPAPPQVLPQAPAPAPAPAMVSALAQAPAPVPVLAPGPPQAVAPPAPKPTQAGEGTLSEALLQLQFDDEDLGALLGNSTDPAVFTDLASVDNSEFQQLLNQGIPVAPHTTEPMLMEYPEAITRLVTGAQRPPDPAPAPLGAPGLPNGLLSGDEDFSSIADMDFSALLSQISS

B1: ANXA1 protein used for surface plasmon resonance (natural protein, UniProt P04083 1-346, looked up)
chain: MAMVSEFLKQAWFIENEEQEYVQTVKSSKGGPGSAVSPYPTFNPSSDVAALHKAIMVKGVDEATIIDILTKRNNAQRQQIKAAYLQETGKPLDETLKKALTGHLEEVVLALLKTPAQFDADELRAAMKGLGTDEDTLIEILASRTNKEIRDINRVYREELKRDLAKDITSDTSGDFRNALLSLAKGDRSEDFGVNEDLADSDARALYEAGERRKGTDVNVFNTILTTRSYPQLRRVFQKYTKYSKHDMNKVLDLELKGDIEKCLTAIVKCATSKPAFFAEKLHQAMKGVGTRHKALIRIMVSRSEIDMNDIKAFYQKMYGISLCQAILDETKGDYEKILVALCGGN
B1 showed a Kd of 13 nM.

The record behind these values is paper PMC8893600 (Kidney international, 2021).
